Patent CN114773459A (UNIV SHENZHEN, dated 2022)

Target: 新型冠状病毒(SARS-CoV-2) S1蛋白 (野生型) (SARS-CoV-2, UniProt P0DTC2 16-685)

B1: 纳米抗体Nb-H6 (VHH)
VHH: QLVESGGGLVQAGDSLRLSCAASERALSSFHMGWFRQAPGKQRAFVAAIKWRDGTTYYADSVKGRFTISRDNAKNTVYLQMNSLEPEDTAVYYCYYRGRWGTYWGQGTQVTVSS
IC50: 9.8 µM
